Publication PMC8202330 (2021)

B1: MYC-SCOC (isoform 3) WT [human] / GFP-GABARAP [not stated] (parent complex)
chain 1: MDGSRKEEEEDSTFTNISLADDIDHSSRILYPRPKSLLPKMMNADMDVDAENQVELEEKTRLINQVLELQHTLEDLSARVDAVKEENLKLKSENQVLGQYIENLMSASSVFQTTDTKSKRK
chain 2: MKFVYKEEHPFEKRRSEGEKIRKKYPDRVPVIVEKAPKARIGDLDKKKYLVPSDLTVGQFYFLIRKRIHLRAEDALFFFVNNVIPPTSATMGQLYQEHHEEDFFLYIAYSDESVYGL

Variants of: B1
Assay: GFP-Trap immunoprecipitation, Western blot quantification; HEK293A lysates mixed prior to IP; mean ± s.d.; n = 3; read off a plot

Point of comparison: chain 1 S12E, chain 1 T15E, response ~63 % binding. Against it:
- chain 1 S12E, chain 1 T13E, chain 1 T15E, chain 1 S18E — higher, ~100 % binding
- chain 1 S18E — lower, ~18 % binding
